In paper PMC6156153:

Target: recombinant staphylococcal protein A (SpA) (Staphylococcus aureus) (UniProt P02976)
Sequence of UniProt P02976 (P02976 37-485): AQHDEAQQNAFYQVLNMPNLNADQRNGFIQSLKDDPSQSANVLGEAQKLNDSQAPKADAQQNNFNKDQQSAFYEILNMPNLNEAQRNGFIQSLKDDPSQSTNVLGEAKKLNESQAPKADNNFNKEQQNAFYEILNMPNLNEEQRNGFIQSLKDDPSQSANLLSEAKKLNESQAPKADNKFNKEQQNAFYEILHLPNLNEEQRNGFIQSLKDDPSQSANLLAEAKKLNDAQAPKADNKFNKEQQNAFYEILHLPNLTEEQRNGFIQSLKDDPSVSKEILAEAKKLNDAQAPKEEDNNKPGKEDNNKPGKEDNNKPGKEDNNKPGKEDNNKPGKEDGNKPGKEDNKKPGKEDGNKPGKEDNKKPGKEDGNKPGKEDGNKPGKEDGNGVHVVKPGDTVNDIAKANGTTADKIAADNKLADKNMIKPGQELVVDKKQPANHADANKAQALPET

| Substance | in vivo depletion of adoptively transferred VHIII (T15i) B cells at 72 h after SpA challenge in muMT mice pretreated with 1 mg of the IgG (told of the IgG3 mAbs together) [% depletion] |
| --- | --- |
| recombinant murine VHIII IgG3 (variable regions of the anti-PC TEPC15 clone) (antibody) | 60 |
| recombinant murine VHI isotype control IgG3 (antibody genes of the anti-hen egg lysozyme D1.3 mAb) | 60 |
